Experimental data taken from paper PMC5727262, “Molecular mechanism of K65 acetylation-induced attenuation of Ubc9 and the NDSM interaction” (Scientific Reports, 2017).

Molecular target: Ac-Ubc9K65 (Ubc9 acetylated at K65), P63279
Test: ITC; 2 μl additions of peptide to 200 μl of WT Ubc9 or Ac-Ubc9K65; 25 °C; pH 8.0, 20 mM potassium phosphate, 100 mM NaCl; iTC200; fitted assuming 1:1 binding stoichiometry

Chain of Ac-Ubc9K65 (Ubc9 acetylated at K65), P63279 (P63279 whole entry): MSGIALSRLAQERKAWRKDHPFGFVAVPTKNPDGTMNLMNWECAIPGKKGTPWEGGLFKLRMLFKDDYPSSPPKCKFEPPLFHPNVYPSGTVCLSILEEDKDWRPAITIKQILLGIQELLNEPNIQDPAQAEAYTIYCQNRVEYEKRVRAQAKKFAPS

B1: CBP NDSM peptide (peptide)
chain: VKVEVKEEEESSSN
modifications: not checked
In the case of B1, the Kd is reported as 105 µM.
